A word on the stoichiometry N: it is a count of units in the complex or per binding partner.

The assay has as its target 7S subunit of the lemon shark 19S immunoglobulin (lemon shark, Negaprion brevirostris). The experiment in a line: AUC.

Regarding “7S subunit of the lemon shark 19S immunoglobulin (complex)”, the stoichiometry N was found to be 5.

The values are drawn from article PMC2138209.
